Test results: article doi:10.1101/688531
“And” between values parts separate entries of the source, which are not always exact repeats. Equal entries are not always repeated.

Biological target: synthetic horse SLN (horse)
Test: SDS-PAGE with immunoblot

## synthetic horse SLN (peptide)
  stoichiometry N: 2 and 3
